The record followed here is patent US20210085800A1 (IMMUNOGEN, published 2021).

Assay [1] deals with T1, folate receptor alpha (FRα) on the surface of KB and T47D cells (UniProt P15328 25-234, limits assumed). In words: cell-based or functional assay.
In assay [2] the target is T1, folate receptor alpha (FRα) on the …. In words: blocking of FRα on KB cells (2 µM) in a cytotoxicity assay.
Procedure: The cell lines were cultured in culture medium as recommended by the cell supplier (ATCC or DSMZ). To each well of a flat bottom 96-well plate was added 1,000-2,000 cells in 100 μL of the culture medium. Conjugates were diluted into the culture medium using 3-fold dilution series and 100 μL were added per well. […] Control wells containing cells and the medium but lacking the conjugates, as well as wells containing medium only, were included in each assay plate. Assays were performed in triplicate for each data point. The plates were incubated at 37° C. in a humidified 6% CO₂ incubator for 5 to 6 days. Then the relative number of viable cells in each well was determined using either the Alamar Blue reagent according the manufacturer's protocol (Life Technologies) or the WST-8 based Cell Counting Kit-8 (Dojindo Molecular Technologies, Inc., Rockville, Md.). The apparent surviving fraction of cells in each well was calculated by first correcting for the medium background absorbance, and then dividing each value by the average of the values in the control wells (non-treated cells). The surviving fraction of cells was plotted against conjugate concentration in semi-log plots.

T1 sequence (P15328 25-234 limits assumed, stated change not applied): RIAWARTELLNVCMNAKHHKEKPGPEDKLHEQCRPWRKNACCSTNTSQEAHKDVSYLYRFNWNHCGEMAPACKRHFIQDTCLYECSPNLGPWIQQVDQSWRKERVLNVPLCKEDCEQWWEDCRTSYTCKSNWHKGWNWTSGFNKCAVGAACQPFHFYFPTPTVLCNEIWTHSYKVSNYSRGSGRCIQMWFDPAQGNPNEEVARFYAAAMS

B1: huMOV19-C442-D5 (antibody, IgG1, V domains shown)
VH: QVQLVQSGAEVVKPGASVKISCKASGYTFTGYFMNWVKQSPGQSLEWIGRIHPYDGDTFYNQKFQGKATLTVDKSSNTAHMELLSLTSEDFAVYYCTRYDGSRAMDYWGQGTTVTVSS
VL: DIVLTQSPLSLAVSLGQPAIISCKASQSVSFAGTSLMHWYHQKPGQQPRLLIYRASNLEAGVPDRFSGSGSKTDFTLTISPVEAEDAATYYCQQSREYPYTFGGGTKLEIKR
modifications: compound D5 linked through its maleimide to the thiol of the engineered Cys 442 (EU/OU numbering); average 2 mol D5/mol antibody
Consider B1, for which, in assay [1], the “fold loss of cytotoxicity when FRα is blocked by unconjugated huMOV19” value (shortened to “fold loss of cytotoxicity”) turned out to be 100 fold.

B2: huMOV19-C442-D4 (antibody, IgG1, V domains shown)
VH: B1 VH
VL: B1 VL
modifications: compound D4 linked through its maleimide to the thiol of the engineered Cys 442 (EU/OU numbering); average 2 mol D4/mol antibody
On to B2, for which, in assay [1], the “fold loss of cytotoxicity” value worked out at 100 fold.

B3: huMOV19-sulfo-SPDB-D1 (antibody, V domains shown)
VH: B1 VH
VL: B1 VL
modifications: compound D1 linked through a sulfo-SPDB linker to lysine side chain amino groups (positions and chain not stated)
Turning to B3, the “fold loss of cytotoxicity” value in assay [1] worked out at 100 fold.

B4: huMOV19 antibody (unconjugated) (antibody, human IgG1, V domains shown)
VH: B1 VH
VL: B1 VL
notes: Human IgG1; also called humanized MOV19 antibody; M9346A; copies: 2 + 2
As for B4, the binding result in assay [2] is listed as “binds”.

B5: huMOV19-D2 (antibody, V domains shown)
VH: B1 VH
VL: B1 VL
modifications: compound D2 linked to lysine residues (positions and chain not stated)
With B5, the “fold loss of cytotoxicity” value in assay [1] was 100 fold.
